Experimental data as given in patent publication US20140329995A1.

Assays:
[1] = target: Gammanorm 165 mg/ml (Octapharma), human polyclonal IgG (human); test: column breakthrough, ligand on agarose base matrix A, ligand density […], residence time 2.4 min, 1 mg/ml IgG
[2] = target: Gammanorm 165 mg/ml (Octapharma), human polyclonal IgG (human); test: column breakthrough, ligand on agarose base matrix A, ligand density […], residence time 6.0 min, 1 mg/ml IgG
[3] = target: Gammanorm 165 mg/ml (Octapharma), human polyclonal IgG (human); test: column breakthrough, ligand on agarose base matrix A, ligand density […], residence time 10.0 min, 1 mg/ml IgG
[4] = target: Gammanorm 165 mg/ml (Octapharma), human polyclonal IgG (human); test: column breakthrough, ligand on agarose base matrix A, ligand density 14.5 mg/ml, residence time 2.4 min, 1 mg/ml IgG
[5] = target: Gammanorm 165 mg/ml (Octapharma), human polyclonal IgG (human); test: column breakthrough, ligand on agarose base matrix A, ligand density 14.5 mg/ml, residence time 6.0 min, 1 mg/ml IgG
[6] = target: Gammanorm 165 mg/ml (Octapharma), human polyclonal IgG (human); test: column breakthrough, ligand on agarose base matrix B, ligand density 11.3 mg/ml, residence time 2.4 min, 1 mg/ml IgG
[7] = target: Gammanorm 165 mg/ml (Octapharma), human polyclonal IgG (human); test: column breakthrough, ligand on agarose base matrix B, ligand density 11.3 mg/ml, residence time 6.0 min, 1 mg/ml IgG
[8] = target: Gammanorm 165 mg/ml (Octapharma), human polyclonal IgG (human); test: column breakthrough, ligand on agarose base matrix A, ligand density 14.5 mg/ml, residence time 10.0 min, 1 mg/ml IgG

## Mutant Z(N23T)6: ligand hexamer containing six copies of protein Z, each containing the N23T substitution (designed binder)
[1]
  Qb10 (dynamic binding capacity at 10% breakthrough): 35.1 mg/ml resin
  Qb80 (dynamic binding capacity at 80% breakthrough): 62.7 mg/ml resin
[2]
  Qb10 (dynamic binding capacity at 10% breakthrough): 53.4 mg/ml resin
  Qb80 (dynamic binding capacity at 80% breakthrough): 68.7 mg/ml resin
[3]
  Qb10 (dynamic binding capacity at 10% breakthrough): 64.5 mg/ml resin
  Qb80 (dynamic binding capacity at 80% breakthrough): 74.5 mg/ml resin
[4]
  Qb10 (dynamic binding capacity at 10% breakthrough): 31.2 mg/ml resin
  Qb80 (dynamic binding capacity at 80% breakthrough): 80.6 mg/ml resin
[5]
  Qb10 (dynamic binding capacity at 10% breakthrough): 61.8 mg/ml resin
  Qb80 (dynamic binding capacity at 80% breakthrough): 103 mg/ml resin
[6]
  Qb10 (dynamic binding capacity at 10% breakthrough): 47 mg/ml resin
  Qb80 (dynamic binding capacity at 80% breakthrough): 76.9 mg/ml resin
[7]
  Qb10 (dynamic binding capacity at 10% breakthrough): 68 mg/ml resin
  Qb80 (dynamic binding capacity at 80% breakthrough): 82.8 mg/ml resin
[8]
  Qb10 (dynamic binding capacity at 10% breakthrough): 76.7 mg/ml resin
  Qb80 (dynamic binding capacity at 80% breakthrough): 103 mg/ml resin
